Measured values from paper PMC11099193, “Extracellular modulation of TREK-2 activity with nanobodies provides insight into the mechanisms of K2P channel regulation” (Nature Communications, 2024).
Residue numbers refer to the chain shown, from its start.

T1: biotinylated TREK-2 (Homo sapiens, biotin (site not stated))
T1 construct: the buffer (OGNG/CHS) is that of the cryo-EM sample
T1 chain: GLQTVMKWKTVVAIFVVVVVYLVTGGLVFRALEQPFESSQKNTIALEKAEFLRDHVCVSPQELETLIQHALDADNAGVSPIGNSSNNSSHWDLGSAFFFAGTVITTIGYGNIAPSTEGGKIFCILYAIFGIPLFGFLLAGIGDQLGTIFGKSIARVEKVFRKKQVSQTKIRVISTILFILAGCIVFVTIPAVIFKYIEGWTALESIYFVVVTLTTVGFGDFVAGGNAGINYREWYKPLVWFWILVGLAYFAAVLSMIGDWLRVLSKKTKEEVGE

T2: human TREK-2 protein (residues Gly67 to Glu340) (human)
T2 construct: Homodimer with a C123 disulphide between the chains; also called KCNK10; purified TREK-2; source: detergent-solubilised, purified
T2 chain: T1 chain

B1: Nb-Inhibitor-61 (VHH)
VHH: QVQLVESGGGLVQAGDSLRVSCAGSGFTFTSYGMGWFRQAPGKEREFVASINWNSNTAYADSVRGRFTISRDNAESMMYLQMNSLKPEDTAVYYCAATRAYSKPRVDSRHYDYWGQGTQVTVSS
notes: also called CA10761; Nb61; source: E. coli WK6, periplasm, purified (Ni-NTA)
B2: Nb-Binder-58 fused to the mVenus fluorescent protein (VHH)
VHH: QVQLVESGGGLVQAGGSLRLSCAASGRAGSGYAMGWFRQAPGKEREIVGAISWSGDNTYYADSVRGRVTISRDYAQNTVYLQMNSLKPEDTAVYYCAADGRGNLRRGTAGRYVEYWGQGTQVTVSS
notes: as the VHH of m9 (Nb58); mVenus joined by a (GS)2 linker; also called Nb58 fused to mVenus; source: cloned into the pFAW vector; not shown: mVenus, C-terminal, kept
B3: Nb-Binder-57 fused to mVenus (VHH)
VHH: QVQLVESGGGLVQAGDSLRLSCASSGRALSNVAMGWFRQAPGKEREIVAAISWSGDNTYYADSGRGRFTISRDNAKNTVYLQMNNLRPEDTAVYYCAADGRGNLRRGTAGRYVDYWGQGTQVTVSS
notes: mVenus joined by a (GS)2 linker; also called CA10757; Nb57; source: cloned into the pFAW vector; not shown: mVenus, C-terminal, kept
B4: Nb-Binder-58 (VHH)
VHH: B2 VHH
notes: also called CA10758; Nb58; source: E. coli WK6, periplasm, purified (Ni-NTA)
B5: CA10771 (VHH)
VHH: QVQLVESGGGLVQAGGSLRLSCAASGRTASLYAMDWFRQAPGKEREFVARLILSTFGTNYADSVKGRFTFSRDNAKNTVYLQMNNLKPEDTGVYFCAAHSLTSTNWDQGTQVTVSS
B6: CA10777 (VHH)
VHH: QVQLVESGGGLVQPGGSLRLSCAASGLIARLIDWGWYRQAPGKQRELVAAITAGGRTNYTDSVKGRFTISRDDPKNTVYLQMSALKPEDTAVYYCCVDFRSYAGKQYHYCGQGTQVTVSS
B7: CA10752 (VHH)
VHH: QVQLVESGGGLVQAGGSLRLSCAASGRTSSTYAMSWFRQPPGKEREFVARIRWSGSNTYYADSVKGRFTISGDNAKNTVYLQMNSLKAEDTAVYYCAAVIDPYSSAYEYWGQGTQVTVSS
B8: CA10753 (VHH)
VHH: B7 VHH with S29F, P40A, S56T, N57S, Y59A, T69F, A88P, D101N
B9: CA10770 (VHH)
VHH: QVQLVESGGGLVQAGGSLRLSCAASGRSFSSYRMAWFRQAPGLEREFVAAISRSGSNTDYADSVKGRFTISRDNAKNTVYLQMNSLKPDDTAVYFCAANTSPLLGSVATGQEYYIYWAQGTQVTVSS
B10: CA10766 (VHH)
VHH: QVQLVESGGGLVQAGGSLRLSCAASGRSFSTYGIGWFRQAPGRERDLVASISWSGGGTYYADSVKGRSTISRDNAKNMVDLQMNSLKPEDTAVYYCAARRLGGVGRIVQYDYWGQGTQVTVSS
B11: CA10763 (VHH)
VHH: QVQLVESGGGLVQAGGSLRLSCAASGLTFSGYPMGWFRQAPGKEREFVATISRSGNNMHYADSVKGRFTISRDNAKNTVSLQMNSLKPEDTAVYYCAADSTTLRRGVASVEYWGQGTQVTVSS
B12: CA10772 (VHH)
VHH: QVQLVESGGGLVQPGGSLRLSCAASGFTFSAYAMRWHRQAPGKGLEWVSSIDHSGAWPNYADSVKGRFTISRDNAKNTLYLQMDSLKPEDTAVYYCSKAGFRGQGTQVTVSS
B13: CA10769 (VHH)
VHH: QVQLVESGGGLVQAGDSLRLSCAASGRTSSSDVMGWFRQAPGKGREFVAETSWRGGKTAYADSVKGRFAISRDNAKNTVYLQMNNLKPEDTAVYYCAVLHADSSTYAYWGQGTRVTVSS
B14: CA10779 (VHH)
VHH: QVQLVESGGGAVQAGGSLRLSCASSDHSFTRYTIAWFRQAPGKEREFVAALTWNGGITNYADSVKGRFTISRENGKNTAYLQMDALESEDTAVYYCAAVFGPASLTREDMYEYWGQGTQVTVSS
B15: CA10754 (VHH)
VHH: QVQLVESGGGLVQAGGSLRLSCAASGRTFSTYAMSWFRQAPGKEREFVARIRWSTTRTSSTYYADSVKGRFTISGDNAKNTVYLQMDSLKPEDTAVYYCAAVINPYSSAYEYWGQGTQVTVSS
B16: CA10755 (VHH)
VHH: QVQLVESGGGLVQAGGSLRLSCAASRSIVTINAMSWHRQAPGKQRELVASITKRGRTNIADSVKGRFAISWDRNTVYLQMNSLKPEDTAVYYCAALTDIPMNTYWGQGTQVTVSS
B17: CA10756 (VHH)
VHH: B16 VHH with I28F, M34I, R73K, V90N, M101V
B18: CA10778 (VHH)
VHH: B16 VHH with S27G, V29F, N32T, K53R, G65D, R73K, D87E, I99A
B19: CA10773 (VHH)
VHH: QVQLVESGGGLVQPGGSLRLSCAASGFTFSSYPMSWARQAPGKGLEWVSAINRGGSSTNYADSVKGRFTISRDNAKNTLYLQMDSLKPEDTAVYYCFKGGTRGQGTQVTVSS
B20: CA10774 (VHH)
VHH: B19 VHH with S17T, Y32K, N52S, G54D, D73N, K76W, S85N, K98M
B21: CA10780 (VHH)
VHH: QVQLVESGGGLVQAGGSLRLSCAASGRTFSSYAMGWFRQAPGKEREFVAAISWSGGSTYYADSVKGRFTVSRDNAKNTVYLQMNSLKPEDTAVYYCAADSISTAQAMRVNERDYGMDYWGKGTQVTVSS
B22: CA10759 (VHH)
VHH: QVQLVESGGGLVQAGGSLRLSCAASGLTFSRYNMGWFRQAPGKEREFVAAINRYGGTMYATDSVKGRFTISRDNVKSTVDLQMNRLKPEDTAVYYCAADQQYMSRLEADFGSWGQGTQVTVSS
B23: CA10760 (VHH)
VHH: B22 VHH with R31A, M58L, A60T, K87E
B24: CA10765 (VHH)
VHH: QVQLVESGGGLVQAGGSLRLSCAASGFTFDDYAIGWFRQAPGKEREGVSCISSSDGSTYYADSVKGRFTISSDNAKNTVYLQMNSLKPEDTAVYYCAADPYLYCSDYGDSGTLSYYGVDYWGKGTQVTVSS
B25: CA10764 (VHH)
VHH: QVQLVESGGGLAQAGGSLRLSCAASGRTFSNYAMGWFRQAPGKEREFVATISSSGGTIRYADSVKGRFTISRDNAKNTVALQMNVLKPEDTAVYYCAQSKYGRAWSDRYEYDRWGQGTQVTVSS

Biological target: T1, biotinylated TREK-2
Experiment: BLI; Octet Red; biotinylated TREK-2 (50 nM) loaded on streptavidin biosensors in 200 mM KCl, 20 mM HEPES pH 7.5, 0.12% OGNG, 0.012% CHS; nanobody dilutions 2 µM-7.8 nM (Nb61) and 1000 nM-3.9 nM (Nb6158); 600 s association, 600 s dissociation
Settings: both partners purified

Kd | Binder
1100 nM | B1

What follows are binders tested against T3, TREK-1 tagged with mCherry (Homo sapiens, UniProt O95069) (assay: immunostaining of cells or tissue; HEK293T cells transfected with K2P-mCherry, fixed with 4% formaldehyde, incubated with nanobody-mVenus for 2 h at 37 °C, washed, imaged for overlap of the two fluorescent signals). Settings: not given.
T3 construct: human TREK-1 K2P channel, stop codon removed and mCherry fused in frame to the C-terminus by a (GS)2 linker; source: HEK293T, transfected (pFAW vector), fixed cells; not shown: mCherry, C-terminal, kept
T3 sequence (O95069 whole entry, the tested form may be a part): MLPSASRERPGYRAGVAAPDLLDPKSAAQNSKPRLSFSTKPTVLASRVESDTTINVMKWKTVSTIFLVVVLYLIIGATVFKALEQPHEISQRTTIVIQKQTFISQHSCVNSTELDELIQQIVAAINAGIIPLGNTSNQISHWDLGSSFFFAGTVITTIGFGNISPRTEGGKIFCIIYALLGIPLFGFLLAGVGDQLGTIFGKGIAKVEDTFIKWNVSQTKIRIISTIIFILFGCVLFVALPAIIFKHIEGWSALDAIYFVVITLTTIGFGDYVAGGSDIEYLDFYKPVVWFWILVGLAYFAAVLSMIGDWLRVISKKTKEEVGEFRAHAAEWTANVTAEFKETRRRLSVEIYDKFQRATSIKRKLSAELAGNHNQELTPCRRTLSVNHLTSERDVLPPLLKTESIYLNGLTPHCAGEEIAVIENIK

binding result | Binder
no binding | B2
no binding | B3

These binders were tested against T4, TREK-2-mCherry fusion (Homo sapiens, UniProt P57789-4, strain) in the same assay as above. Settings: not given.
T4 construct: The legend says HEK-293, the methods HEK293T; also called TREK-2 tagged with the mCherry fluorescent protein; K2P-mCherry-pFAW; source: HEK293T, transfected (pFAW vector), fixed cells; not shown: mCherry, C-terminal, kept
T4 sequence (P57789 whole entry, looked up, stated change not applied, the tested form may be a part): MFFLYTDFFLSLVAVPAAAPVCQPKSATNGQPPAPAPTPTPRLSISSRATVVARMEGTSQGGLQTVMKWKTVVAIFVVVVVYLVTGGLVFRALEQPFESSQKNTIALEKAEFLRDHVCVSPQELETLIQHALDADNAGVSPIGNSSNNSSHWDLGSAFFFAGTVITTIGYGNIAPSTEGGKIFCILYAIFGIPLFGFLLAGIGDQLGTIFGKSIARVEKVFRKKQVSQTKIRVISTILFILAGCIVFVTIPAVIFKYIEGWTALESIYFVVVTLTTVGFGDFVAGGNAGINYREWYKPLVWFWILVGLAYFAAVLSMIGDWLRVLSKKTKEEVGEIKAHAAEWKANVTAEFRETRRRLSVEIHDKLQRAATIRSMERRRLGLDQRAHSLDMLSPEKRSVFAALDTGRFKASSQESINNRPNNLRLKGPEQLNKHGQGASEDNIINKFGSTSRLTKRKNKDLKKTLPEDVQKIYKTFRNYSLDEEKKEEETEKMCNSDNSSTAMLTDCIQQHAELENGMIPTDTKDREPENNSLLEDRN

binding result | Binder
binds | B2
binds | B3

Biological target: T2, human TREK-2 protein (residues Gly67 to …)
Experiment: SEC; each nanobody mixed with purified TREK-2 in a 2:1 molar ratio, Sepax SRT SEC-300 column in 200 mM KCl, 20 mM HEPES pH 7.5; shift of the 280 nm TREK-2 peak against TREK-2 alone
Settings: both partners purified

binding result | Binder
binds | B4

Biological target: T2, human TREK-2 protein (residues Gly67 to …)
Experiment: not given
Settings: not given

binding result | Binder
binds | B5
binds | B6
binds | B7
binds | B8
binds | B9
binds | B10
binds | B11
binds | B12
binds | B13
binds | B14
binds | B15
binds | B16
binds | B17
binds | B18
binds | B19
binds | B20
binds | B21
binds | B22
binds | B23
binds | B24
binds | B25
